# The DeepSol protein solubility set
# Assay: soluble on expression in E. coli; label from the status in PepcDB or PDB records
row,Sequence,soluble on expression in E. coli
1,MPNASQVYRSTRSSSPKTISFEEAIIQGLATDGGLFIPPTIPQVDQATLFNDWSKLSFQDLAFAIMRLYIAQEEIPDADLKDLIKRSYSTFRSDEVTPLVQNVTGDKENLHILELFHGPTYAFKDVALQFVGNLFEYFLQRTNANLPEGEKKQITVVGATSGDTGSAAIYGLRGKKDVSVFILYPTGRISPIQEEQMTTVPDENVQTLSVTGTFDNCQDIVKAIFGDKEFNSKHNVGAVNSINWARILAQMTYYFYSFFQATNGKDSKKVKFVVPSGNFGDILAGYFAKKMGLPIEKLAIATNENDILDRFLKSGLYERSDKVAATLSPAMDILISSNFERLLWYLAREYLANGDDLKAGEIVNNWFQELKTNGKFQVDKSIIEGASKDFTSERVSNEETSETIKKIYESSVNPKHYILDPHTAVGVCATERLIAKDNDKSIQYISLSTAHPAKFADAVNNALSGFSNYSFEKDVLPEELKKLSTLKKKLKFIERADVELVKNAIEEELAKMKL,soluble
2,MPNNETEASMRNTLFPTLKWSLLVLMTSLLTACGFHLRGDYDIPQELSRMSLTSYDQYSTFTRMVHRQLRLNKIDLQAPAEDLPNLHLLSESTGERTLSLYQNTRAAEIELTFVASYRVTVPELGSRTFTTSVTRSYLDNPLTALAKSVERDMIEDEMRKLAASQIVRQMARLKADFARKTLDDESIEGKGITDYRVDTQEVANPVSTEGSSELEHHHHHH,soluble
3,MPNTPHTMNLYIKNIAQLVTCQGSEAKHGREAMGQIHTIEGPAAVVIRDGIIAFAGRMADVAPSMTEGCRELDATGRCVLPGFVDSHTHLVFGGYREDEFQWRLAGDSYMSIMERGGGIASTMRATRSESEDELKASARRHLSNMMKMGVTTVEAKSGYGMNLETELKQLRVVRDLQDEQPLDLYSTFMGAHDTAPEYKGRPTEFIEYLCREVLPEVVRQNLAECCDIFTEKGVFDHEQTRRMLTAAKEAGLSVKMHADEIVPFGGAELAAELGCLSADHLLRISDAGIKALAESNTVATLLPCTAFSLRADYAPARKMIDAGCAVALGSDLNPGSCFSASVPLMFALATLYMGMTVEEAITALTINGAAAIGRADTIGSIEPGKKGDLVVLQYPSYKFLSYHFGMNLVEHTVKGGRVVYTNS,not soluble
4,MPNTTNKDYTKYSQRQLFSFLNSIKTKQKRALEKLKEIQAQKQRIKKALQFKALNLTENGYTIEEEREILARAKDTKNRLCFKSIEDFKKHCENL,not soluble
5,MPNYLENVKDAAAIIASARRIMVVGCSGGGKSTLSQKLAAAFGLRYISMDRDIFWLPGWQLRPREEQRQRIAAVVTEDRWLMDGSNPSSFDLRLPRTDIVLWVRMPRWLCLWGAVSRIVKGYGKARPEMAAGCPERIDLDFLRYIWNFERRHTPVFEESFALHGPNVPIFQLKSRKQIRRLLDLLVVEDLEHHHHHH,soluble
6,MPPASLTFEPPSVVAVFATHAVLCWEQPRTPHTTSFAEHMAWEYQIEYNCSCRVRQQPYCATGSNTFVLLATPHEGETYYVRVVAKASFAGSTSGLVSAKAAFTASCNVAMPWRCSARPPVCVFDALYLSANVEAEDIAALSAARSSTIDNAAVLDGKSVCYTLEGDIAVRTYRMLYSGTAALPVGPARTVYYMVATTRLHTGKRTRAMELLSIMQREGASIVFCGIGDGGRLALCAALTFLSFLTTACPALCASVLCITYGTPRLLLKEGPRLLAHTLPLSGQLLHFTQLPLIEHTPFVSDTVALSQRGSGVAVDTPPLGYANGFYRNMLLGAQCRVTDWTGLHFRLSSPDELSTEAEEAEVFDVVGQLRALSELFFPSSLQWLSPSVTSVSCRTEGPLLHVSVEGLTCITALG,not soluble
7,MPPSPLDDRVVVALSRPVRPQDLNLCLDSSYLGSANPGSNSHPPVIATTVVSLKAANLTYMPSSSGSARSLNCGCSSASCCTVATYDKDNQAQTQAIAAGTTTTAIGTSTTCPANQMVNNNENTGSLSPSSGVGSPVSGTPKQLASIKIIYPNDLAKKMTKCSKSHLPSQGPVIIDCRPFMEYNKSHIQGAVHINCADKISRRRLQQGKITVLDLISCREGKDSFKRIFSKEIIVYDENTNEPSRVMPSQPLHIVLESLKREGKEPLVLKGGLSSFKQNHENLCDNSLQLQECREVGGGASAASSLLPQPIPTTPDIENAELTPILPFLFLGNEQDAQDLDTMQRLNIGYVINVTTHLPLYHYEKGLFNYKRLPATDSNKQNLRQYFEEAFEFIEEAHQCGKGLLIHCQAGVSRSATIVIAYLMKHTRMTMTDAYKFVKGKRPIISPNLNFMGQLLEFEEDLNNGVTPRILTPKLMGVETVV,soluble
8,MPPVCGRRCSRTGEIRGYSGSIVRRWKRVETRDGPRFRSSLAPHEAALLKNLAGAMIGLLDDRDSSSPSDELEEITGIKTGHAQRPGDPTLRRLLPDFYRPDDLDDDDPTAVDGSESFNAALRSLHEPEIIDAKRVAAQQLLDTVPDNGGRLELTESDANAWIAAVNDLRLALGVMLEIGPRGPERLPGNHPLAAHFNVYQWLTVLQEYLVLVLMGSR,not soluble
9,MPQDVDFHIPLPGRQSPDHARAEAEQLAWPRSLGLIRSDAAAERHLRGGYADLASRFYPHATGADLDLGVDLMSWFFLFDDLFDGPRGENPEDTKQLTDQVAAALDGPLPDTAPPIAHGFADIWRRTCEGMTPAWCARSARHWRNYFDGYVDEAESRFWNAPCDSAAQYLAMRRHTIGVQPTVDLAERAGRFEVPHRVFDSAVMSAMLQIAVDVNLLLNDIASLEKEEARGEQNNMVMILRREHGWSKSRSVSHMQNEVRARLEQYLLLESCLPKVGEIYQLDTAEREALERYRTDAVRTVIRGSYDWHRSSGRYDAEFALAAGAQGYLEELGSSAH,soluble
10,MPQLSPWQHYQKDLTRDGFSHDPAQEIAVKALQRVYEDLTAAEEPNSLFGKLFTSFGLTSAPAPTKGLYLWGGVGRGKTYLMDTFFDTLPGNQKLRAHFHRFMHQLHLDLDALKGTRDPLLVIAKQMAAKYRVICFDEFFVSDITDAMLLGTLFQALFKEGVVLVATSNIIPDDLYKNGLQRARFLPAIALINQHCEVLNVDSGIDYRLRTLEQAEIYHHPLDEQADTNLLRYFGQLAPEAEISTEAIEIEGRAISIRQQAQGVLLADFRALCDGPRSQRDYMELARIYHTVLVSGIEQMGAFLTGDDIARRFLAMVDEFYERNVKLIVSAQVPLEDIYADGLLSFEFRRCRSRLIEMQSHDYLKSEHLPAAALEHHHHHH,soluble
11,MPQQKNFVTMPAQHQNKQPGIESLMNPLPQFEDPNYKGSEKLKGKNVLITGGDSGIGRAVSIAFAKEGANIAIAYLDEEGDANETKQYVEKEGVKCVLLPGDLSDEQHCKDIVQETVRQLGSLNILVNNVAQQYPQQGLEYITAEQLEKTFRINIFSYFHVTKAALSHLKQGDVIINTASIVAYEGNETLIDYSATKGAIVAFTRSLSQSLVQKGIRVNGVAPGPIWTPLIPSSFDEKKVSQFGSNVPMQRPGQPYELAPAYVYLASSDSSYVTGQMIHVNGGVIVNG,not soluble
12,MPRDNSSSSRRRRGSKRCPTGMSSNKTSRSTSSSSVTSSSGHGASSFSEDSSVRSVTNSVRSTRSAGSIMSMASAEASVVAPDLTIYHGDRKQSYQLADKGKMVVINRKNGVIVYMLRCVDGRRVYIEKSSEGASLILTNQRGKVIKALAGHY,not soluble
13,MPRGYKNPRVVPDNVERVISAYTPVPGTLAWGVVWEDPFAEFVRECARDLGLPATASDDVIRGNLRLIASFVAWVIHEYDCPLRRDEIFDYILAEAYAMSVIYVRDGHGKGTSNKVRGIRRSMLTKIGWKMNKHFGEPHKHTLPQEGALEPYKQWQLNKVDAWAGSQPNERRRRNARVAIALALGAGLRTSEIAGLTADDCEVTDSGMVLIHAPGYRGGEPRITVVDHRFEDTITDRLAELADLRAAGEPGQYLYCPHLLGRTTDMVNDYMKKKITSSGADCYLQPDLRRLRNTWITGHIKAGVEEGAICQAAGLKSLNQFRDLVDEAAKARAEQSYARLRGGEHRPVLRLVQG,not soluble
14,MPRIITRPFLFSPLTLCISAVASAAKTAVKRKKLFTAVLALSWAFSVTAAERIVVAGGSLTELIYAMGAGERVVGVDETTSYPPETAKLPHIGYWKQLSSEGILSLRPDSVITWQDAGPQIVLDQLRAQKVNVVTLPRVPATLQQMYANIRQLAKTLQVPEQGEALVTQISQRLERVQQNVATKKAPVKAMFILSAGGSAPQVAGKGSVADAILSLAGAENVATHQQYKSYSAESLIAANPEVIVVTSQMVDGDINRLRSIAGITHTAAWKNQRIITVDQNLILGMGPRIADVVESLHQQLWPQ,not soluble
15,MPRIVFDCLIDQPAARHLIERIDALTALLVRDNVVYSAHVDHQPQSPQPDSVREELTTTYLRDRGAETADELSDSVVALDELSLQRFTIVVDGLNGSLNETAMTYSRLLTPAARLSNDALDLTDEQRYEVPAAYPWTVFVSA,not soluble
16,MPRPSAGSHHNDKLHFKKGDTVIVLSGKHKGQTGKVLLALPRDQKVVVEGVNVITKNVKPSMTNPQGGQEQRELALHASKVALVDPETGKATRVRKQIVDGKKVRVAVASGKTID,soluble
17,MPRQRRQGIVYDVREQGTARLIFDENRTKFDGVLETISGETMLVRGRVTSPTDLASTSATTDGSIVMDIDVVDGEEGSAFHVTGVKVLVDEHYAAIDSTAIKFEALDRLIGMKAAVEIQQHISPEIAYDSKEVFIGKMQIHLLTSHRPSPSSRRESVCAENNDIKILEVSDDFLA,not soluble
18,MPRRNPLWLRLPGSSSPSSSSTTEELRLAALSPYSPNDDISSIPDSLEHSPAKTSDDGSEISRANFSSPSSPSRSPSKKVSWSLFDQVSLSGEEFLLPRRFEAIELNAGTSTRSTSISCSATDLLESDHVTIRKISLQDPATARREYRNIILCRLLPHPNILPISEAYEVDSTLYTVSEQMDGRLSDIVEERLTHFVVAKISHQILAAVAMMHQNGIAHGDLTLSTIYVNTDAELRLSSYGKSDDSSEHLDERYRDDLLSIGAIVSRFLMNEEEMFKFSKSRNLKDIDWRVVLEGSSDSGLLDFNARSLLFQLLEGRQSARDLLRHPYFKSFRAPQHQTVERKHTVVGQKTSDEVLDKLREELQRFNPFNMSEIML,not soluble
19,MPSFLEISPDKLNRLIGTPGAPRIIDVRTDEDFALDPRLVPGSIRRDHAEVASWADSIDADAVVVVCHRGAKLSHGVAAYLRHAGIEAESLAGGFEAWAAAGPAVPEAKLSRRDAQGRTVWVTRARPKIDRIACPWLIRRFIDPNAVFLFVPAPEVVAVGERFGAAPFDIEDVFWSHRGELCTFDVMVEEFGLASEPLLRLAQIVRAADTARLDLAPEASGLLAASLGLSRMYSDDLEQLEAGMLLYDAFFRWCRDATEETHNWPAPKKRALEHHHHHH,soluble
20,MPTFLLVNDDGYFSPGINALREALKSLGRVVVVAPDRNLSGVGHSLTFTEPLKMRKIDTDFYTVIDGTPADCVHLGYRVILEEKKPDLVLSGINEGPNLGEDITYSGTVSGAMEGRILGIPSIAFSAFGRENIMFEEIAKVCVDIVKKVLNEGIPEDTYLNVNIPNLRYEEIKGIKVTRQGKRAYKERVFKYIDPYGKPFYWIAAEEFGWHAEEGTDYWAVLNGYVSVTPLHLDLTNYKVMKSIKYLEDSP,soluble
21,MPTIQSVRRTQSGRPGKRAINLSLSADVLDAARQLDINISQVCDTYLREVVRHEQERRWREEHADFITAYNATIEAENLPLDEWRSF,not soluble
22,MPTSNTAFLIQNLPASRTAPHYRAGLDPVKGGLALQRSGGRVYISLLMGKRGFLRREASPKEVLEHCLRLAREVAPPTPKGKRGRPWRYSHALYLALLLFRAFFHLTYRETEASLQDLMEGPFPSHQSLARYALKHLDPKLLEALLERLSRELEAHLAPESSPEGEAASDEAPAHLAALSPP,soluble
